Target: lamin A/C (human (endogenous in primary myoblasts)) (UniProt P02545)
Test: proximity ligation; in situ PLA (Duolink) on methanol-fixed human myoblasts after uniaxial cyclic stretching (10% strain, 1 Hz, 4 h); anti-lamin A/C with anti-desmin or anti-plectin 1; 100 nuclei counted per replicate

UniProt P02545, sequence (P02545 1-646): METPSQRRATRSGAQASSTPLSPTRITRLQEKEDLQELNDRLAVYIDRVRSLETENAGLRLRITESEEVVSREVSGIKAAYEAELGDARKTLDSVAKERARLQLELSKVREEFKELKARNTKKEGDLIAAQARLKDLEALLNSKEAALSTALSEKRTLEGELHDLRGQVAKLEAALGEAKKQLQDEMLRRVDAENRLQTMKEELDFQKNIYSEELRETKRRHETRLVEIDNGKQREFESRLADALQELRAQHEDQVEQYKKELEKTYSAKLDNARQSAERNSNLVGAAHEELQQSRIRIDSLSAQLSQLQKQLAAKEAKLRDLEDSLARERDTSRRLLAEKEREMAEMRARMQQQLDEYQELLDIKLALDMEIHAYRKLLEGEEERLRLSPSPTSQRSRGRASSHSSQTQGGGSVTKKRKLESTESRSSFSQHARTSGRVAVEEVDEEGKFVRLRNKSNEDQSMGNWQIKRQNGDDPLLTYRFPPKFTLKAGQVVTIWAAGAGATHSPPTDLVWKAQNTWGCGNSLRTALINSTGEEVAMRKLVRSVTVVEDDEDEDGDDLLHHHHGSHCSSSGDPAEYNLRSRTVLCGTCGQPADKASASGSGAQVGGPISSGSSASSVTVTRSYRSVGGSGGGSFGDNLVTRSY

- increase of PLA signal relative to non-stimulated cells: 64%
Substance: plectin 1 (natural protein)

Source: publication PMC10814836
